Test results from patent US20200317768A1 (published 2020).

T1: cynomolgus monkey FcγRIIa3 extracellular domain with C-terminal His-tag (cynomolgus monkey)
T1 construct: Expressed in FreeStyle 293 cells and purified; also called cyno FcγRIIa3; cynoFcgRIIa3; not shown: C-terminal His-tag
T1 chain: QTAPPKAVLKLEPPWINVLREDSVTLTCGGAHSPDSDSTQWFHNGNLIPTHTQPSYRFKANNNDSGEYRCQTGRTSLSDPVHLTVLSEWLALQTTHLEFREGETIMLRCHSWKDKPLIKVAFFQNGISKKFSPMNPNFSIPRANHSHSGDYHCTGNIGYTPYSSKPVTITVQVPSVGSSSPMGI

T2: human FcγRIIb extracellular domain with C-terminal His-tag (human, UniProt P31994 43-217)
T2 construct: Expressed in FreeStyle 293 cells and purified; also called humanFcgRIIb; not shown: C-terminal His-tag
T2 sequence: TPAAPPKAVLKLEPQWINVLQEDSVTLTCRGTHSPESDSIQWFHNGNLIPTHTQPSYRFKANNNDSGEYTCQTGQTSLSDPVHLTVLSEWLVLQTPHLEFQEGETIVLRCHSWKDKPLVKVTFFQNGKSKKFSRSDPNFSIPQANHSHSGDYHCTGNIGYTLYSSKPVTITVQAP

T3: cynomolgus monkey FcγRIIb extracellular domain with C-terminal His-tag (cynomolgus monkey)
T3 construct: Expressed in FreeStyle 293 cells and purified; also called cyno FcγRIIb; cynoFcγRIIb; not shown: C-terminal His-tag
T3 chain: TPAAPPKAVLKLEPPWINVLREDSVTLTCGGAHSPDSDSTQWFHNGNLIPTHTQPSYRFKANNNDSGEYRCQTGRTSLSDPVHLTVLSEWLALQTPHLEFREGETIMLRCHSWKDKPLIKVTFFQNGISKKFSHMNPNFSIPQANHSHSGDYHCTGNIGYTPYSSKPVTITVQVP

T4: human FcγRIIaH extracellular domain with C-terminal His-tag (human, UniProt P12318 34-217)
T4 construct: Expressed in FreeStyle 293 cells and purified; also called human FcγRIIa (type H); FcgRIIaH; not shown: C-terminal His-tag
T4 sequence: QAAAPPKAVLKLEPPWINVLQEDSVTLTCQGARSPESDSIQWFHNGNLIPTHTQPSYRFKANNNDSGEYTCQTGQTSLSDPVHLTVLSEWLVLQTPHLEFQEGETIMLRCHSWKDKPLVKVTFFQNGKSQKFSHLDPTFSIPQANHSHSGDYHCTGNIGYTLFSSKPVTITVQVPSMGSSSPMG

T5: cynomolgus monkey FcγRIIa2 extracellular domain with C-terminal His-tag (cynomolgus monkey)
T5 construct: Expressed in FreeStyle 293 cells and purified; also called cyno FcγRIIa2; cynoFcgRIIa2; not shown: C-terminal His-tag
T5 chain: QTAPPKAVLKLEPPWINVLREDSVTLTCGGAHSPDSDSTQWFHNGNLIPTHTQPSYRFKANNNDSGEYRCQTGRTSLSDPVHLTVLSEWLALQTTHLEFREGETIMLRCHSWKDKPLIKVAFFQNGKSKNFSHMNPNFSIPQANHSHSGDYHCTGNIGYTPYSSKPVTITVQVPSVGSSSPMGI

T6: cynomolgus monkey FcγRIIa1 extracellular domain with C-terminal His-tag (cynomolgus monkey)
T6 construct: Expressed in FreeStyle 293 cells and purified; also called cyno FcγRIIa1; cynoFcgRIIa1; not shown: C-terminal His-tag
T6 chain: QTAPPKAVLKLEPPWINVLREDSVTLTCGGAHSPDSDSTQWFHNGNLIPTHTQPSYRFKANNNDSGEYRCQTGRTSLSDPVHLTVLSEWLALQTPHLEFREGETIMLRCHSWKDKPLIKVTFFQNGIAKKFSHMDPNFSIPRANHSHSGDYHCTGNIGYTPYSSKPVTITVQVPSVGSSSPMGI


How the values were obtained:
[1] = molecular target: T1, cynomolgus monkey FcγRIIa3 …; test: SPR (Biacore), antibody captured on chip, FcgR extracellular domain as analyte, 25 C
[2] = molecular target: T7, human FcγRIIIaV extracellular domain with C-terminal His-tag (human, UniProt P08637 17-208); test: as above
T7 construct: Expressed in FreeStyle 293 cells and purified; also called FcgRIIIaV; not shown: C-terminal His-tag
T7 sequence (P08637 17-208 F176V): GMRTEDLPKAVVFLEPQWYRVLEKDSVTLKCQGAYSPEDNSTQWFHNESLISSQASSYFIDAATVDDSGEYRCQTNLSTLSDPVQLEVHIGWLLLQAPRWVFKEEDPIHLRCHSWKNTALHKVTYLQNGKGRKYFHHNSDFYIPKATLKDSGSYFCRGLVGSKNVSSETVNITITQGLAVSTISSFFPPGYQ

[3] = molecular target: T2, human FcγRIIb extracellular domain with …; test: as above
[4] = molecular target: T3, cynomolgus monkey FcγRIIb extracellular …; test: SPR (Biacore); KD of SG1 divided by KD of the variant for this FcgR;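 also: relative to parent M103205H795-SG1 carrying the SG1 human heavy chain constant region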
Protocol: (§1) The kinetic analysis of interactions between these antibodies and FcγR was carried out using BIACORE® T200 or BIACORE® 4000 (GE Healthcare). HBS-EP+ (GE Healthcare) was used as the running buffer, and the measurement temperature was set to 25° C. A chip produced by immobilizing Protein A. Protein A/G or mouse anti-human IgG kappa light chain (BD Biosciences) onto a Series S Sensor Chip CM4 or CM5 (GE Healthcare) by the amine-coupling method was used. […] After the measurement, the antibody captured on the chip was washed off by allowing reaction with 10 mM glycine-HCl, pH1.5 and 25 mM NaOH so that the chip was regenerated and used repeatedly. The sensorgrams obtained as measurement results were analyzed by the 1:1 Langmuir binding model using the BIACORE® Evaluation Software to calculate the binding rate constant ka (L/mol/s) and dissociation rate constant kd (l/s), and the dissociation constant KD (mol/L) was calculated from these values. […] Regarding such interactions, KD values were calculated using the following 1:1 binding model described in BIACORE® T100 Software Handbook BR1006-48 Edition AE.
(§2) The resultant variants were expressed using M103202L889-SK1 as light chain and their affinity to human and cynoFcγRs were evaluated (Table 20).

[5] = molecular target: T1, cynomolgus monkey FcγRIIa3 …; test: as above
Protocol: as §1, §2

[6] = molecular target: T7, human FcγRIIIaV extracellular domain …; test: as above
Protocol: as §1, §2

[7] = molecular target: T4, human FcγRIIaH extracellular domain …; test: as above
Protocol: as §1, §2

[8] = molecular target: T5, cynomolgus monkey FcγRIIa2 …; test: as above
Protocol: as §1, §2

[9] = molecular target: T6, cynomolgus monkey FcγRIIa1 …; test: as above
Protocol: as §1, §2

[10] = molecular target: T2, human FcγRIIb extracellular domain with …; test: as above
Protocol: as §1, §2

Row | Binder | Kd [1] | Kd [2] | Kd [3] | KD fold (SG1 = 1) [4] | KD fold (SG1 = 1) [5] | KD fold (SG1 = 1) [6] | KD fold (SG1 = 1) [7] | KD fold (SG1 = 1) [8] | KD fold (SG1 = 1) [9] | KD fold (SG1 = 1) [10]
1 | M103205H795-MY170 / M103202L889-SK1 (antibody, human IgG1, kappa, Position 396 variant derived from MY052, expressed with M103202L889-SK1 as light chain) heavy: QVTLKESGPVLVKPTETLTLTCTVSGIDLSHDDISWVRQAPGKGLEWVGIISYAGSTYYASWAKGRLTISKDTSKNQVVLTMTNMDPVDTATYYCARGVPAYSHGGDLWGQGTLVTVSSASTKGPSVFPLAPSSKSTSGGTAALGCLVKDYFPEPVTVSWNSGALTSGVHTFPAVLQSSGLYSLSSVVTVPSSSLGTQTYICNVNHKPSNTKVDKKVEPKSCDKTHTCPPCPAPELLNGPSVFLFPPKPKDTLMISRTPEVTCVVVDVSEEDPEVKFNWYVDGVEVHNAKTKPREEQYNSTYRVVSVLTVLHQDWLNGKEYKCKVSNKALPAPIEKTISKAKGQPREPQVYTLPPSREEMTKNQVSLTCLVKGFYPSDIAVEWESNGQPENNYKTTPEVLDSDGSFFLYSKLTVDKSRWQQGNVFSCSVMHEALHNHYTQKSLSLSP light: DIVMTQSPATLSLSPGERATLSCTSSQSVYHANWLSWFQQKPGQPPKLLIYWASTLAYGVPSRFSGSGSGTDFTLTISSLQPEDAATYYCAGGYGGGRYAFGQGTKVEIKRTVAAPSVFIFPPSDEQLKSGTASVVCLLNNFYPREAKVQWKVDNALQSGNSQESVTEQDSKDSTYSLSSTLTLSKADYEKHKVYACEVTHQGLSSPVTKSFNRGEC | 12 µM | 6.3 µM | 1.6 µM | 1.5 fold | 1.4 fold | 0.13 fold | 0.4 fold | 2.1 fold | 1.4 fold | 2.9 fold
2 | M103205H795-MY171 / M103202L889-SK1 (antibody, human IgG1, kappa, Position 396 variant derived from MY052, expressed with M103202L889-SK1 as light chain) heavy: QVTLKESGPVLVKPTETLTLTCTVSGIDLSHDDISWVRQAPGKGLEWVGIISYAGSTYYASWAKGRLTISKDTSKNQVVLTMTNMDPVDTATYYCARGVPAYSHGGDLWGQGTLVTVSSASTKGPSVFPLAPSSKSTSGGTAALGCLVKDYFPEPVTVSWNSGALTSGVHTFPAVLQSSGLYSLSSVVTVPSSSLGTQTYICNVNHKPSNTKVDKKVEPKSCDKTHTCPPCPAPELLNGPSVFLFPPKPKDTLMISRTPEVTCVVVDVSEEDPEVKFNWYVDGVEVHNAKTKPREEQYNSTYRVVSVLTVLHQDWLNGKEYKCKVSNKALPAPIEKTISKAKGQPREPQVYTLPPSREEMTKNQVSLTCLVKGFYPSDIAVEWESNGQPENNYKTTPFVLDSDGSFFLYSKLTVDKSRWQQGNVFSCSVMHEALHNHYTQKSLSLSP light: DIVMTQSPATLSLSPGERATLSCTSSQSVYHANWLSWFQQKPGQPPKLLIYWASTLAYGVPSRFSGSGSGTDFTLTISSLQPEDAATYYCAGGYGGGRYAFGQGTKVEIKRTVAAPSVFIFPPSDEQLKSGTASVVCLLNNFYPREAKVQWKVDNALQSGNSQESVTEQDSKDSTYSLSSTLTLSKADYEKHKVYACEVTHQGLSSPVTKSFNRGEC | 92 µM | 5.9 µM | 12 µM | 1.8 fold | 1.8 fold | 0.14 fold | 0.5 fold | 2.2 fold | 1.4 fold | 3.8 fold
